Among the data in publication PMC8384158 are screen value values, retold here.

Sequences and labels used below:
B1: TAP–Bag-1S [human] / Calnexin [human (endogenous in MCF-7 and MCF-12A)] (parent)
chain 1: MNRSQEVTRDEESTRSEEVTREEMAAAGLTVTVTHSNEKHDLHVTSQQGSSEPVVQDLAQVVEEVIGVPQSFQKLIFKGKSLKEMETPLSALGIQDGCRVMLIGKKNSPQEEVELKKLKHLEKSVEKIADQLEELNKELTGIQQGFLPKDLQAEALCKLDRRVKATIEQFMKILEEIDTLILPENFKDSRLKRKGLVKKVQAFLAECDTVEQNICQETERLQSTNFALAE
chain 2: HDGHDDDVIDIEDDLDDVIEEVEDSKPDTTAPPSSPKVTYKAPVPTGEVYFADSFDRGTLSGWILSKAKKDDTDDEIAKYDGKWEVEEMKESKLPGDKGLVLMSRAKHHAISAKLNKPFLFDTKPLIVQYEVNFQNGIECGGAYVKLLSKTPELNLDQFHDKTPYTIMFGPDKCGEDYKLHFIFRHKNPKTGIYEEKHAKRPDADLKTYFTDKKTHLYTLILNPDNSFEILVDQSVVNSGNLLNDMTPPVNPSREIEDPEDRKPEDWDERPKIPDPEAVKPDDWDEDAPAKIPDEEATKPEGWLDDEPEYVPDPDAEKPEDWDEDMDGEWEAPQIANPRCESAPGCGVWQRPVIDNPNYKGKWKPPMIDNPSYQGIWKPRKIPNPDFFEDLEPFRMTPFSAIGLELWSMTSDIFFDNFIICADRRIVDDWANDGWGLKKAADGAAEPGVVGQMIEAAEERPWLWVVYILTVALPVFLVILFCCSGKKQTSGMEYKKTDAPQPDVKEEEEEKEEEKDKGDEEEEGEEKLEEKQKSDAEEDGGTVSQEEEDRKPKAEEDEILNRSPRNRKPRRE
B2: TAP–Bag-1S [human] / PDIA3 [human (endogenous in MCF-7 and MCF-12A)] (parent)
chain 1: B1 chain 1
chain 2: SDVLELTDDNFESRISDTGSAGLMLVEFFAPWCGHCKRLAPEYEAAATRLKGIVPLAKVDCTANTNTCNKYGVSGYPTLKIFRDGEEAGAYDGPRTADGIVSHLKKQAGPASVPLRTEEEFKKFISDKDASIVGFFDDSFSEAHSEFLKAASNLRDNYRFAHTNVESLVNEYDDNGEGIILFRPSHLTNKFEDKTVAYTEQKMTSGKIKKFIQENIFGICPHMTEDNKDLIQGKDLLIAYYDVDYEKNAKGSNYWRNRVMMVAKKFLDAGHKLNFAVASRKTFSHELSDFGLESTAGEIPVVAIRTAKGEKFVMQEEFSRDGKALERFLQDYFDGNLKRYLKSEPIPESNDGPVKVVVAENFDEIVNNENKDVLIEFYAPWCGHCKNLEPKYKELGEKLSKDPNIVIAKMDATANDVPSPYEVRGFPTIYFSPANKKLNPKKYEGGRELSDFISYLQREATNPPVIQEEKPKKKKKAQEDL

Variants of B1 are the subject of the first experiment. The experiment is described as follows: TAP pull-down interactome analysis (LC-MS/MS). The following applies: with Calnexin [human (endogenous in MCF-7 and MCF-12A)]; MCF-7 cells; read off a plot.
Take chain 1 R193D: the screen value was -0.55 log2.

In the case of chain 1 R161D, the screen value was -1.6 log2.

On to chain 1 I103K, for which the screen value was -1.1 log2.

With chain 1 R162E, the screen value is -1.1 log2.

The variants in a further experiment derive from B2. Briefly: TAP pull-down interactome analysis (LC-MS/MS). The following applies: with PDIA3 [human (endogenous in MCF-7 and MCF-12A)]; MCF-7 cells; read off a plot.
Regarding chain 1 R161D, the screen value is -1.5 log2.

For the variant chain 1 I103K, the screen value is -0.07 log2.

As for chain 1 R162E, the screen value was -0.62 log2.

For the variant chain 1 R193D, the screen value is -0.1 log2.
